The values below come from paper PMC10341776.

The target in this experiment is chloroplast FOF1-ATP synthase from spinach chloroplasts (spinach (Spinacia oleracea)) (UniProt P06450). The experiment can be described thus: SAXS; AEX-purified cFOF1 dialysed overnight against 30 mM HEPES, 2 mM MgCl2, 0.04% (w/v) tPCC-α-M, 450 mM NaCl; room temperature; fit with a mixture of monomers and docked dimers (OLIGOMER); monomer to dimer.

The term stoichiometry N denotes the number of molecules, sites or subunits per partner or assembly.

For “chloroplast FOF1-ATP synthase from spinach chloroplasts, P06450 1-507; P00825 1-498; P05435 42-364; P00833 1-134; P11402 71-257; P06451 1-247; P06453 1-184; P31853 76-222; P69447 1-81”, the fraction of dimeric cFOF1 (model with F1/F1 dimers) came to 68% and the stoichiometry N is 2.
